Test results: patent publication US20230416330A1, “Optimized GIP Peptide Analogues” (Antag Therapeutics ApS, priority 2019, published 2023)
Starred links: 1 amine or outer side, 2 acyl side, 3 side chain; linkers in the order of their positions; H or OH if unused. Non-standard residues stand in square brackets, D forms with d. Groups on a side chain read outwards from the residue. No end group written: not given here. *: point of attachment. C18 diacid = O=C(O)CCCCCCCCCCCCCCCCC(=O)*; γGlu = O=C(O)[C@H](CCC(=O)[*:2])N[*:1]; Glutaryl = O=C(CCCC(=O)[*:2])[*:1]; AEEA = NCCOCCOCC(=O)O; Aib = CC(C)(N)C(=O)O

T1: human GIP receptor (human, UniProt P48546 22-466)
T1 sequence (looked up): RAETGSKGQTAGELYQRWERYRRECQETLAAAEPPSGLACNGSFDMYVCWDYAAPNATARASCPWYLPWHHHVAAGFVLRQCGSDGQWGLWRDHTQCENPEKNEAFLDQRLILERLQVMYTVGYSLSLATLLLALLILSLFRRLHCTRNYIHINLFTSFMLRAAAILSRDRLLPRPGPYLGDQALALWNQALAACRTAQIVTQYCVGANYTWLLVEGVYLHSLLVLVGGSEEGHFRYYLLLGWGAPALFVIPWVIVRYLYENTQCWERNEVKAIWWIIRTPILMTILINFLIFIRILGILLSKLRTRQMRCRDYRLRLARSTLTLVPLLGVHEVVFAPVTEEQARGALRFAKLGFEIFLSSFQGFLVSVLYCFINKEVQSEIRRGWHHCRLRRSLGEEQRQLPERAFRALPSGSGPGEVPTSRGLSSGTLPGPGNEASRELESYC

B1: AT712 (peptide)
peptide: EGTFISEYSI[Aib]LDKIK([AEEA-AEEA-γGlu-C18 diacid])QQDFVEWLLAQKPSSGAPPPS-OH
modifications: N-terminus assumed
SMILES: CC[C@H](C)[C@H](NC(=O)[C@H](CCCCN)NC(=O)[C@H](CC(=O)O)NC(=O)[C@H](CC(C)C)NC(=O)C(C)(C)NC(=O)[C@@H](NC(=O)[C@H](CO)NC(=O)[C@H](Cc1ccc(O)cc1)NC(=O)[C@H](CCC(=O)O)NC(=O)[C@H](CO)NC(=O)[C@@H](NC(=O)[C@H](Cc1ccccc1)NC(=O)[C@@H](NC(=O)CNC(=O)[C@@H](N)CCC(=O)O)[C@@H](C)O)[C@@H](C)CC)[C@@H](C)CC)C(=O)N[C@@H](CCCCNC(=O)COCCOCCNC(=O)COCCOCCNC(=O)CC[C@H](NC(=O)CCCCCCCCCCCCCCCCC(=O)O)C(=O)O)C(=O)N[C@@H](CCC(N)=O)C(=O)N[C@@H](CCC(N)=O)C(=O)N[C@@H](CC(=O)O)C(=O)N[C@@H](Cc1ccccc1)C(=O)N[C@H](C(=O)N[C@@H](CCC(=O)O)C(=O)N[C@@H](Cc1c[nH]c2ccccc12)C(=O)N[C@@H](CC(C)C)C(=O)N[C@@H](CC(C)C)C(=O)N[C@@H](C)C(=O)N[C@@H](CCC(N)=O)C(=O)N[C@@H](CCCCN)C(=O)N1CCC[C@H]1C(=O)N[C@@H](CO)C(=O)N[C@@H](CO)C(=O)NCC(=O)N[C@@H](C)C(=O)N1CCC[C@H]1C(=O)N1CCC[C@H]1C(=O)N1CCC[C@H]1C(=O)N[C@@H](CO)C(=O)O)C(C)C
B2: AT713 (peptide)
peptide: Glutaryl-GTFISEYSI[Aib]LEKIK([AEEA-AEEA-γGlu-C18 diacid])QQEFVEWLLAQKPSSGAPPPS-NH2
SMILES: CC[C@H](C)[C@H](NC(=O)[C@H](CCCCN)NC(=O)[C@H](CCC(=O)O)NC(=O)[C@H](CC(C)C)NC(=O)C(C)(C)NC(=O)[C@@H](NC(=O)[C@H](CO)NC(=O)[C@H](Cc1ccc(O)cc1)NC(=O)[C@H](CCC(=O)O)NC(=O)[C@H](CO)NC(=O)[C@@H](NC(=O)[C@H](Cc1ccccc1)NC(=O)[C@@H](NC(=O)CNC(=O)CCCC(=O)O)[C@@H](C)O)[C@@H](C)CC)[C@@H](C)CC)C(=O)N[C@@H](CCCCNC(=O)COCCOCCNC(=O)COCCOCCNC(=O)CC[C@H](NC(=O)CCCCCCCCCCCCCCCCC(=O)O)C(=O)O)C(=O)N[C@@H](CCC(N)=O)C(=O)N[C@@H](CCC(N)=O)C(=O)N[C@@H](CCC(=O)O)C(=O)N[C@@H](Cc1ccccc1)C(=O)N[C@H](C(=O)N[C@@H](CCC(=O)O)C(=O)N[C@@H](Cc1c[nH]c2ccccc12)C(=O)N[C@@H](CC(C)C)C(=O)N[C@@H](CC(C)C)C(=O)N[C@@H](C)C(=O)N[C@@H](CCC(N)=O)C(=O)N[C@@H](CCCCN)C(=O)N1CCC[C@H]1C(=O)N[C@@H](CO)C(=O)N[C@@H](CO)C(=O)NCC(=O)N[C@@H](C)C(=O)N1CCC[C@H]1C(=O)N1CCC[C@H]1C(=O)N1CCC[C@H]1C(=O)N[C@@H](CO)C(N)=O)C(C)C
B3: AT707 (peptide)
peptide: Glutaryl-GTFISEYSIALEKIK([AEEA-AEEA-γGlu-C18 diacid])QQEFVEWLLAQKPSSGAPPPS-OH
SMILES: CC[C@H](C)[C@H](NC(=O)[C@H](CO)NC(=O)[C@H](Cc1ccc(O)cc1)NC(=O)[C@H](CCC(=O)O)NC(=O)[C@H](CO)NC(=O)[C@@H](NC(=O)[C@H](Cc1ccccc1)NC(=O)[C@@H](NC(=O)CNC(=O)CCCC(=O)O)[C@@H](C)O)[C@@H](C)CC)C(=O)N[C@@H](C)C(=O)N[C@@H](CC(C)C)C(=O)N[C@@H](CCC(=O)O)C(=O)N[C@@H](CCCCN)C(=O)N[C@H](C(=O)N[C@@H](CCCCNC(=O)COCCOCCNC(=O)COCCOCCNC(=O)CC[C@H](NC(=O)CCCCCCCCCCCCCCCCC(=O)O)C(=O)O)C(=O)N[C@@H](CCC(N)=O)C(=O)N[C@@H](CCC(N)=O)C(=O)N[C@@H](CCC(=O)O)C(=O)N[C@@H](Cc1ccccc1)C(=O)N[C@H](C(=O)N[C@@H](CCC(=O)O)C(=O)N[C@@H](Cc1c[nH]c2ccccc12)C(=O)N[C@@H](CC(C)C)C(=O)N[C@@H](CC(C)C)C(=O)N[C@@H](C)C(=O)N[C@@H](CCC(N)=O)C(=O)N[C@@H](CCCCN)C(=O)N1CCC[C@H]1C(=O)N[C@@H](CO)C(=O)N[C@@H](CO)C(=O)NCC(=O)N[C@@H](C)C(=O)N1CCC[C@H]1C(=O)N1CCC[C@H]1C(=O)N1CCC[C@H]1C(=O)N[C@@H](CO)C(=O)O)C(C)C)[C@@H](C)CC
B4: AT708 (peptide)
peptide: Glutaryl-GTFISEYSI[Aib]MEKIK([AEEA-AEEA-γGlu-C18 diacid])QQEFVEWLLAQKPSSGAPPPS-OH
SMILES: CC[C@H](C)[C@H](NC(=O)[C@H](CCCCN)NC(=O)[C@H](CCC(=O)O)NC(=O)[C@H](CCSC)NC(=O)C(C)(C)NC(=O)[C@@H](NC(=O)[C@H](CO)NC(=O)[C@H](Cc1ccc(O)cc1)NC(=O)[C@H](CCC(=O)O)NC(=O)[C@H](CO)NC(=O)[C@@H](NC(=O)[C@H](Cc1ccccc1)NC(=O)[C@@H](NC(=O)CNC(=O)CCCC(=O)O)[C@@H](C)O)[C@@H](C)CC)[C@@H](C)CC)C(=O)N[C@@H](CCCCNC(=O)COCCOCCNC(=O)COCCOCCNC(=O)CC[C@H](NC(=O)CCCCCCCCCCCCCCCCC(=O)O)C(=O)O)C(=O)N[C@@H](CCC(N)=O)C(=O)N[C@@H](CCC(N)=O)C(=O)N[C@@H](CCC(=O)O)C(=O)N[C@@H](Cc1ccccc1)C(=O)N[C@H](C(=O)N[C@@H](CCC(=O)O)C(=O)N[C@@H](Cc1c[nH]c2ccccc12)C(=O)N[C@@H](CC(C)C)C(=O)N[C@@H](CC(C)C)C(=O)N[C@@H](C)C(=O)N[C@@H](CCC(N)=O)C(=O)N[C@@H](CCCCN)C(=O)N1CCC[C@H]1C(=O)N[C@@H](CO)C(=O)N[C@@H](CO)C(=O)NCC(=O)N[C@@H](C)C(=O)N1CCC[C@H]1C(=O)N1CCC[C@H]1C(=O)N1CCC[C@H]1C(=O)N[C@@H](CO)C(=O)O)C(C)C

molecular target: T1, human GIP receptor; experiment: cell-based or functional assay

Row | Binder | nM (Kb, Gaddum assay, cAMP) | pKb (Gaddum assay, cAMP)
1 | B1 | 0.39 nM | 9.4
2 | EGTFISEYSIAMEKIK([AEEA-AEEA-γGlu-C18 diacid])QQEFVEWLLAQKPSSGAPPPS-OH [AT710] | 0.73 nM | 9.1
3 | B2 | 0.31 nM | 9.5
4 | B3 | 0.28 nM | 9.6
5 | B4 | 0.2 nM | 9.7
6 | EGTFISEYSI[Aib]MEKIK([AEEA-AEEA-γGlu-C18 diacid])QQEFVEWLLAQKPSSGAPPPS-OH [AT709] | 0.24 nM | 9.6
